Article PMC9367177
pKd: −log10 of the molar value.

Target: SARS-CoV-2 RBD (Wuhan-1), monomeric, His-Avitag (SARS-CoV-2, Wuhan-1) (UniProt P0DTC2)
Assay: SPR

Substance CC12.1 IgG (antibody) has a pKd of 8.22.
